Experimental data taken from US20220105194A1, “CONJUGATE COMPRISING LIGAND, SPACER, PEPTIDE LINKER, AND BIOMOLECULE” (ASTELLAS PHARMA INC., priority 2019, published 2022).

How the values were obtained:
[1] = molecular target: human cancer-specific MUC1 peptide (PTL 1) (human); assay: ELISA, immobilised MUC1 peptide (Example 6-1)
[2] = molecular target: human cancer-specific MUC1 peptide (PTL 1) (human); assay: ELISA, immobilised MUC1 peptide (Example 6-2)
[3] = mouse, in vivo
Method: (§1) A Gd-labeled conjugate of the conjugate containing a peptide linker produced in one of the above Examples was administered from the tail vein of mice (BALB/c or BALB/c nu/nu) so that the protein mass was 0.02 mg (100 μL) per animal. After about 24 hours, the mice were sacrificed and the kidneys were removed, and the amount of Gd in the kidneys was measured using ICP-MS. The present test was carried out in 3 cases in each group, the mean value of the 3 cases was calculated, and the amount of Gd contained per kidney after administration was shown as a percentage (% of dose/tissue) of the total amount of Gd administered.
Based on the percentage of the control conjugate (% of dose/tissue), the proportion of decrease in the amount of Gd contained in the kidneys of each of the conjugates having a peptide linker was determined and shown in Table 28.

[4] = design: species or system mice (BALB/c nu/nu); conditions: mouse, in vivo
Method: A Gd-labeled conjugate of the conjugate containing a peptide linker produced in one of the above Examples was administered from the tail vein of tumor-bearing mice so that the protein mass was 0.02 mg (100 μL) per animal. As the tumor-bearing mice used in the present Example, mice (BALB/c nu/nu) that were in a tumor-bearing state brought about by transplanting human colorectal cancer cell line LS174T cells (ATCC(registered trademark); CL-188) at 2.0 to 5.0×10^6 cells/mouse subcutaneously on the back before administration of the sample were used. 24 hours after administration of the sample, the mice were sacrificed, the kidneys and the tumor were removed, and the amounts of Gd in the kidneys and in the tumor were measured using ICP-MS. The present test was carried out in 3 cases in each group, and the mean value of the 3 cases was calculated. The amount of Gd contained per kidney after administration was shown as a percentage of the amount of Gd administered (% of dose/tissue), and the amount of Gd contained per g of tumor tissue was shown as a percentage of the total amount of Gd administered (% of dose/g).

[5] = design: species or system mice (BALB/c or BALB/c nu/nu); conditions: mouse, in vivo
Method: as §1

human cancer-specific MUC1 peptide (PTL 1) (human), sequence (main, as listed by the source): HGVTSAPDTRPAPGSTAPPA

Molecule	Proportion of decrease (%) in the amount of Gd contained in the kidneys [3]	Renal residual amount (cancer-bearing mice), % of dose/tissue [4]	Renal residual amount (cancer-bearing mice), Proportion of decrease (%) [4]	also measured
([Gd/DOTA-NH-CH2-(1,4-Ph)-NH-C(═O)-Met-Ile-NH-(CH2)2-(A-4 and/or A-5)]p-Fab^5) (Fab, V domains shown, labeling portion on p amino groups of the Fab; chain and sites not stated) VH: QVQLVQSGAEVKKPGASVKVSCKASGYTFTNYGLSWVRQAPGQGLEWMGENHPGSGIIYHNEKFRGRVTLTADRSTSTAYMELSSLRSEDTAVYYCARSSGTRGFDYWGQGTLVTVSS VL: DVVMTQTPLSLSVTPGQPASISCRSSQSIVHSNGNTYLEWYLQKPGQSPQLLIYRVSNRFSGVPDRFSGSGSGTDFTLKISRVEAEDVGVYYCFQGSHGPWTFGQGTKLEIKR	–	–	–	EC50 [1]: 0.08 nM
([Gd/DOTA-[2,5-(1,2,3,4-tetrahydroisoquinoline)]-C(═O)-Met-Gly-Lys*-C(═S)-NH-(1,4-Ph)-NH-C(═S)]p-Fab^5) (Fab, V domains shown, labeling portion on p amino groups of the Fab; chain and sites not stated) VH: QVQLVQSGAEVKKPGASVKVSCKASGYTFTNYGLSWVRQAPGQGLEWMGENHPGSGIIYHNEKFRGRVTLTADRSTSTAYMELSSLRSEDTAVYYCARSSGTRGFDYWGQGTLVTVSS VL: DVVMTQTPLSLSVTPGQPASISCRSSQSIVHSNGNTYLEWYLQKPGQSPQLLIYRVSNRFSGVPDRFSGSGSGTDFTLKISRVEAEDVGVYYCFQGSHGPWTFGQGTKLEIKR	–	–	–	EC50 [2]: 0.19 nM
([Gd/DOTA-NH-CH2-(1,4-Ph)-NH-C(═O)-Met-Ile-NH-(CH2)2-Z1(#N)]p-Fab^5) (Fab, V domains shown, labeling portion on p amino groups of the Fab; chain and sites not stated) VH: QVQLVQSGAEVKKPGASVKVSCKASGYTFTNYGLSWVRQAPGQGLEWMGENHPGSGIIYHNEKFRGRVTLTADRSTSTAYMELSSLRSEDTAVYYCARSSGTRGFDYWGQGTLVTVSS VL: DVVMTQTPLSLSVTPGQPASISCRSSQSIVHSNGNTYLEWYLQKPGQSPQLLIYRVSNRFSGVPDRFSGSGSGTDFTLKISRVEAEDVGVYYCFQGSHGPWTFGQGTKLEIKR	–	–	–	EC50 [2]: 0.08 nM
([Gd/DOTA-NH-CH2-(1,4-Ph)-NH-C(═O)-Met-Ile-NH-(CH2)2-Z1(#S)]p-Fab^5) (Fab, V domains shown, labeling portion on p amino groups of the Fab; chain and sites not stated) VH: QVQLVQSGAEVKKPGASVKVSCKASGYTFTNYGLSWVRQAPGQGLEWMGENHPGSGIIYHNEKFRGRVTLTADRSTSTAYMELSSLRSEDTAVYYCARSSGTRGFDYWGQGTLVTVSS VL: DVVMTQTPLSLSVTPGQPASISCRSSQSIVHSNGNTYLEWYLQKPGQSPQLLIYRVSNRFSGVPDRFSGSGSGTDFTLKISRVEAEDVGVYYCFQGSHGPWTFGQGTKLEIKR	–	–	–	EC50 [2]: 0.09 nM
[Gd/DOTA-NH—(CH2CH2O)3—CH2—C(═O)—NH—CH2-(1,3-Ph)-C(═O)-Met-Gly-Lys*-Z2(#N)]p-Fab^2 (conjugate) heavy: EVQLVESGGGLVQPGGSLRLSCAASGFNIRDTYMHWVRQAPGKGLEWVARIDPANGNSRYVPKFQGRFTISADTSRNTAYLQMNSLRAEDTAVYYCAPFGYYVSDYAMAYWGQGTLVTVSSASTKGPSVFPLAPSSKSTSGGTAALGCLVKDYFPEPVTVSWNSGALTSGVHTFPAVLQSSGLYSLSSVVTVPSSSLGTQTYICNVNHKPSNTKVDKKVEPKSCD light: DIQLTQSPSSLSASVGDRVTITCRAGESVDIFGVGFLHWYQQKPGKAPKLLIYRASNLESGIPSRFSGSGSRTDFTLTISSLQPEDFATYYCQQTNEDPYTFGQGTKVEIKRTVAAPSVFIFPPSDEQLKSGTASVVCLLNNFYPREAKVQWKVDNALQSGNSQESVTEQDSKDSTYSLSSTLTLSKADYEKHKVYACEVTHQGLSSPVTKSFNRGEC	78.0%	8.40 % of dose/tissue	67.48%	–
[Gd/DOTA-NH—(CH2CH2O)3—CH2—C(═O)—NH—CH2-(1,3-Ph)-C(═O)-Met-Gly-Lys*-Z2(#S)]p-Fab^2 (conjugate) heavy: EVQLVESGGGLVQPGGSLRLSCAASGFNIRDTYMHWVRQAPGKGLEWVARIDPANGNSRYVPKFQGRFTISADTSRNTAYLQMNSLRAEDTAVYYCAPFGYYVSDYAMAYWGQGTLVTVSSASTKGPSVFPLAPSSKSTSGGTAALGCLVKDYFPEPVTVSWNSGALTSGVHTFPAVLQSSGLYSLSSVVTVPSSSLGTQTYICNVNHKPSNTKVDKKVEPKSCD light: DIQLTQSPSSLSASVGDRVTITCRAGESVDIFGVGFLHWYQQKPGKAPKLLIYRASNLESGIPSRFSGSGSRTDFTLTISSLQPEDFATYYCQQTNEDPYTFGQGTKVEIKRTVAAPSVFIFPPSDEQLKSGTASVVCLLNNFYPREAKVQWKVDNALQSGNSQESVTEQDSKDSTYSLSSTLTLSKADYEKHKVYACEVTHQGLSSPVTKSFNRGEC	77.4%	9.40 % of dose/tissue	63.61%	–
[Gd/DOTA-NH—(CH2CH2O)3—CH2—C(═O)—NH—CH2-(1,3-Ph)-C(═O)-Gly-Lys*—Z2(#N)]p-Fab^2 (conjugate) heavy: EVQLVESGGGLVQPGGSLRLSCAASGFNIRDTYMHWVRQAPGKGLEWVARIDPANGNSRYVPKFQGRFTISADTSRNTAYLQMNSLRAEDTAVYYCAPFGYYVSDYAMAYWGQGTLVTVSSASTKGPSVFPLAPSSKSTSGGTAALGCLVKDYFPEPVTVSWNSGALTSGVHTFPAVLQSSGLYSLSSVVTVPSSSLGTQTYICNVNHKPSNTKVDKKVEPKSCD light: DIQLTQSPSSLSASVGDRVTITCRAGESVDIFGVGFLHWYQQKPGKAPKLLIYRASNLESGIPSRFSGSGSRTDFTLTISSLQPEDFATYYCQQTNEDPYTFGQGTKVEIKRTVAAPSVFIFPPSDEQLKSGTASVVCLLNNFYPREAKVQWKVDNALQSGNSQESVTEQDSKDSTYSLSSTLTLSKADYEKHKVYACEVTHQGLSSPVTKSFNRGEC	44.8%	–	–	–
[Gd/DOTA-NH—CH2-(1,4-Ph)-NH—C(═O)-Met-Ile-NH—(CH2)2—Z(#N)]p-Fab^2 (conjugate) heavy: EVQLVESGGGLVQPGGSLRLSCAASGFNIRDTYMHWVRQAPGKGLEWVARIDPANGNSRYVPKFQGRFTISADTSRNTAYLQMNSLRAEDTAVYYCAPFGYYVSDYAMAYWGQGTLVTVSSASTKGPSVFPLAPSSKSTSGGTAALGCLVKDYFPEPVTVSWNSGALTSGVHTFPAVLQSSGLYSLSSVVTVPSSSLGTQTYICNVNHKPSNTKVDKKVEPKSCD light: DIQLTQSPSSLSASVGDRVTITCRAGESVDIFGVGFLHWYQQKPGKAPKLLIYRASNLESGIPSRFSGSGSRTDFTLTISSLQPEDFATYYCQQTNEDPYTFGQGTKVEIKRTVAAPSVFIFPPSDEQLKSGTASVVCLLNNFYPREAKVQWKVDNALQSGNSQESVTEQDSKDSTYSLSSTLTLSKADYEKHKVYACEVTHQGLSSPVTKSFNRGEC	–	5.77 % of dose/tissue	77.68%	Renal residual amount (normal mice), % of dose/tissue [5]: 2.60 % of dose/tissue; Renal residual amount (normal mice), Proportion of decrease (%) [5]: 91.13%
Ex-No 10: (Y—S1—X)p-Fab^2: Y Gd/DOTA, S1 bond, X -Met-Ile-Lys*-Z2(#N)— (conjugate) heavy: EVQLVESGGGLVQPGGSLRLSCAASGFNIRDTYMHWVRQAPGKGLEWVARIDPANGNSRYVPKFQGRFTISADTSRNTAYLQMNSLRAEDTAVYYCAPFGYYVSDYAMAYWGQGTLVTVSSASTKGPSVFPLAPSSKSTSGGTAALGCLVKDYFPEPVTVSWNSGALTSGVHTFPAVLQSSGLYSLSSVVTVPSSSLGTQTYICNVNHKPSNTKVDKKVEPKSCD light: DIQLTQSPSSLSASVGDRVTITCRAGESVDIFGVGFLHWYQQKPGKAPKLLIYRASNLESGIPSRFSGSGSRTDFTLTISSLQPEDFATYYCQQTNEDPYTFGQGTKVEIKRTVAAPSVFIFPPSDEQLKSGTASVVCLLNNFYPREAKVQWKVDNALQSGNSQESVTEQDSKDSTYSLSSTLTLSKADYEKHKVYACEVTHQGLSSPVTKSFNRGEC	–	–	–	Renal residual amount (normal mice), % of dose/tissue [5]: 20.10 % of dose/tissue; Renal residual amount (normal mice), Proportion of decrease (%) [5]: 31.46%
[Gd/DOTA-NH—CH2-(1,3-Ph)-C(═O)-Met-Gly-Lys*-Z2(#N)]p-Fab^2 (conjugate) heavy: EVQLVESGGGLVQPGGSLRLSCAASGFNIRDTYMHWVRQAPGKGLEWVARIDPANGNSRYVPKFQGRFTISADTSRNTAYLQMNSLRAEDTAVYYCAPFGYYVSDYAMAYWGQGTLVTVSSASTKGPSVFPLAPSSKSTSGGTAALGCLVKDYFPEPVTVSWNSGALTSGVHTFPAVLQSSGLYSLSSVVTVPSSSLGTQTYICNVNHKPSNTKVDKKVEPKSCD light: DIQLTQSPSSLSASVGDRVTITCRAGESVDIFGVGFLHWYQQKPGKAPKLLIYRASNLESGIPSRFSGSGSRTDFTLTISSLQPEDFATYYCQQTNEDPYTFGQGTKVEIKRTVAAPSVFIFPPSDEQLKSGTASVVCLLNNFYPREAKVQWKVDNALQSGNSQESVTEQDSKDSTYSLSSTLTLSKADYEKHKVYACEVTHQGLSSPVTKSFNRGEC	50.3%	–	–	–
[Gd/DOTA-NH—CH2-(1,3-Ph)-C(═O)-Met-Gly-Lys*-Z2(#S)]p-Fab^2 (conjugate) heavy: EVQLVESGGGLVQPGGSLRLSCAASGFNIRDTYMHWVRQAPGKGLEWVARIDPANGNSRYVPKFQGRFTISADTSRNTAYLQMNSLRAEDTAVYYCAPFGYYVSDYAMAYWGQGTLVTVSSASTKGPSVFPLAPSSKSTSGGTAALGCLVKDYFPEPVTVSWNSGALTSGVHTFPAVLQSSGLYSLSSVVTVPSSSLGTQTYICNVNHKPSNTKVDKKVEPKSCD light: DIQLTQSPSSLSASVGDRVTITCRAGESVDIFGVGFLHWYQQKPGKAPKLLIYRASNLESGIPSRFSGSGSRTDFTLTISSLQPEDFATYYCQQTNEDPYTFGQGTKVEIKRTVAAPSVFIFPPSDEQLKSGTASVVCLLNNFYPREAKVQWKVDNALQSGNSQESVTEQDSKDSTYSLSSTLTLSKADYEKHKVYACEVTHQGLSSPVTKSFNRGEC	58.3%	12.33 % of dose/tissue	52.26%	–
[Gd/DOTA-NH—CH2-(1,3-Ph)-C(═O)-Asp-Gly-Lys*-Z2(#N)]p-Fab^2 (conjugate) heavy: EVQLVESGGGLVQPGGSLRLSCAASGFNIRDTYMHWVRQAPGKGLEWVARIDPANGNSRYVPKFQGRFTISADTSRNTAYLQMNSLRAEDTAVYYCAPFGYYVSDYAMAYWGQGTLVTVSSASTKGPSVFPLAPSSKSTSGGTAALGCLVKDYFPEPVTVSWNSGALTSGVHTFPAVLQSSGLYSLSSVVTVPSSSLGTQTYICNVNHKPSNTKVDKKVEPKSCD light: DIQLTQSPSSLSASVGDRVTITCRAGESVDIFGVGFLHWYQQKPGKAPKLLIYRASNLESGIPSRFSGSGSRTDFTLTISSLQPEDFATYYCQQTNEDPYTFGQGTKVEIKRTVAAPSVFIFPPSDEQLKSGTASVVCLLNNFYPREAKVQWKVDNALQSGNSQESVTEQDSKDSTYSLSSTLTLSKADYEKHKVYACEVTHQGLSSPVTKSFNRGEC	52.2%	–	–	Renal residual amount (normal mice), % of dose/tissue [5]: 21.67 % of dose/tissue; Renal residual amount (normal mice), Proportion of decrease (%) [5]: 26.12%
